Results taken from the supplement of paper PMC10724198.
± gives the standard deviation of the averaged measurements.

Test system: Saccharomyces cerevisiae
Experiment: protein stability index of tFT-peptide fusion (C-terminal peptide) (PSI (0-1 scale)); higher = more stable (slower turnover)
Conditions: temperature: 30 C
Protocol: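 MPS profiling in S. cerevisiae of the yeast C-terminome library: the last 12 aa of each annotated ORF are fused to the C-terminus of a sfGFP-mCherry timer, after a GGGS linker. Cells are FACS-sorted into 8 mCherry/sfGFP bins and deep-sequenced. PSI runs from 0 (unstable) to 1 (stable); wild type and das1Δ backgrounds, two technical replicates each.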

[1] = genetic background: das1 deletion

Row | Sequence | protein stability index [1] | protein stability index (genetic background: wild type)
1 | AAELRDISQCDV [OPI8 C-terminal 12 aa] | 0.682 ± 0.024 | 0.69 ± 0.088
2 | AANAEILSKINK [POX1 C-terminal 12 aa] | 0.713 ± 0.017 | 0.683 ± 0.0089
3 | ADGNPLQALPQL [TOM40 C-terminal 12 aa] | 0.7077 ± 0.0065 | 0.666 ± 0.024
4 | AEETAVFTLPNV [GGA2 C-terminal 12 aa] | 0.7266 ± 0.0034 | 0.694 ± 0.0082
5 | AEIIDSLLEQIN [NSI1 C-terminal 12 aa] | 0.744 ± 0.019 | 0.6797 ± 0.0017
6 | AERFDNTEVLHL [STE13 C-terminal 12 aa] | 0.7011 ± 0.0037 | 0.689 ± 0.035
7 | AGADNTARLWTT [ERB1 C-terminal 12 aa] | 0.722 ± 0.014 | 0.736 ± 0.056
8 | AGTDKSQRCAIM [GIS4 C-terminal 12 aa] | 0.758 ± 0.018 | 0.695 ± 0.056
9 | AGVNSARGVLRI [SFT2 C-terminal 12 aa] | 0.6898 ± 0.0045 | 0.71 ± 0.023
10 | AIAPTSLLTPMP [YER087C-A C-terminal 12 aa] | 0.6937 ± 0.0021 | 0.733 ± 0.013
11 | AIARCALGETLL [CAR1 C-terminal 12 aa] | 0.685 ± 0.011 | 0.641 ± 0.011
12 | AKAQSQALVTGM [PCL6 C-terminal 12 aa] | 0.6806 ± 0.0011 | 0.685 ± 0.035
13 | AKKKKKRIRGFG [RRN6 C-terminal 12 aa] | 0.686 ± 0.015 | 0.671 ± 0.034
14 | ALHSEEASFHSL [AIM21 C-terminal 12 aa] | 0.709 ± 0.012 | 0.7 ± 0.021
15 | ALKLRALEKLSF [NCS6 C-terminal 12 aa] | 0.711 ± 0.014 | 0.697 ± 0.037
16 | ALLILVLGWFYR [SCS2 C-terminal 12 aa] | 0.405 ± 0.027 | 0.4 ± 0.0047
17 | ALPNWNTPYLRR [UCC1 C-terminal 12 aa] | 0.719 ± 0.015 | 0.746 ± 0.023
18 | ANHNNQRAGYFL [SIT4 C-terminal 12 aa] | 0.699 ± 0.02 | 0.652 ± 0.015
19 | ANKKARHFNNSA [VAM7 C-terminal 12 aa] | 0.687 ± 0.017 | 0.698 ± 0.019
20 | ANMAAYDKAIHC [LPD1 C-terminal 12 aa] | 0.681 ± 0.018 | 0.708 ± 0.033
21 | ANTHSSLICSKP [YBR209W C-terminal 12 aa] | 0.6854 ± 0.0039 | 0.701 ± 0.044

Row | Sequence | protein stability index [1] | protein stability index (genetic background: wild type)
22 | APVAAGESESSL [SRO9 C-terminal 12 aa] | 0.6991 ± 0.0048 | 0.687 ± 0.007
23 | ARNIWRLFLQKI [YLR126C C-terminal 12 aa] | 0.705 ± 0.058 | 0.168 ± 0.0098
24 | ASIGSDIVNNIF [PIN3 C-terminal 12 aa] | 0.712 ± 0.032 | 0.711 ± 0.04
25 | ASLVFPKEKQNV [APC4 C-terminal 12 aa] | 0.718 ± 0.034 | 0.6902 ± 0.00072
26 | ATTSLNNPYGFR [TOS7 C-terminal 12 aa] | 0.675 ± 0.0069 | 0.663 ± 0.03
27 | AVDYILRLFGFL [COQ2 C-terminal 12 aa] | 0.72 ± 0.013 | 0.537 ± 0.019
28 | AVGPRQTGEECR [YER088W-B C-terminal 12 aa] | 0.695 ± 0.0098 | 0.66899 ± 0.00042
29 | AYFPQKYKHKYI [PRM6 C-terminal 12 aa] | 0.689 ± 0.0077 | 0.5656 ± 0.004
30 | CERCKSELQSVH [SET6 C-terminal 12 aa] | 0.686 ± 0.0084 | 0.663 ± 0.03
31 | CEVYCSKNSCAS [YBR099C C-terminal 12 aa] | 0.6895 ± 0.0012 | 0.661 ± 0.031
32 | CFLIGSSDTTSL [OPI6 C-terminal 12 aa] | 0.7045 ± 0.0014 | 0.691 ± 0.028
33 | CIAKKVKTYWNK [YIL024C C-terminal 12 aa] | 0.68219 ± 0.00014 | 0.676 ± 0.023
34 | CIGDTDYIERYD [CDA1 C-terminal 12 aa] | 0.694 ± 0.015 | 0.685 ± 0.031
35 | CIISIVVFPTCI [BIO5 C-terminal 12 aa] | 0.286 ± 0.016 | 0.285 ± 0.0088
36 | CIVNLASDTISL [YOL150C C-terminal 12 aa] | 0.709 ± 0.0077 | 0.667 ± 0.01
37 | CKATSLLLIPEG [YBL108W C-terminal 12 aa] | 0.675 ± 0.018 | 0.659 ± 0.021
38 | CLFRYKQLPRRV [MCH2 C-terminal 12 aa] | 0.69 ± 0.073 | 0.687 ± 0.029
39 | CLQTESETDIET [LIF1 C-terminal 12 aa] | 0.661 ± 0.0085 | 0.674 ± 0.013
40 | CLRKSPPFVHNT [YMR084W C-terminal 12 aa] | 0.6939 ± 0.0044 | 0.703 ± 0.022
41 | CTIQKMREKANT [YNL028W C-terminal 12 aa] | 0.677 ± 0.027 | 0.723 ± 0.062
42 | CVDCGTVVNNFR [LAF1 C-terminal 12 aa] | 0.723 ± 0.019 | 0.688 ± 0.025
